PMC4635314, “Insights into Collagen Uptake by C-type Mannose Receptors from the Crystal Structure of Endo180 Domains 1–4” (Structure(London, England:1993), 2015)

What was measured:
[1] = biological target: T1, gelatin (heat-denatured rat-tail type I collagen) (rat, UniProt P02454 152-1207; P02466 86-1125); assay: ELISA; solid-phase binding assay: collagen or gelatin coated at 10 μg/ml on Nunc MaxiSorp plates; Fc-tagged Endo180 proteins in PBS with 0.1 mg/ml κ-casein and 0.05% Tween 20 added for 2 hr (titration, or fixed 1 μM in Figure 6A); detected with anti-human IgG-HRP, 492 nm; single-site fit; details: both partners purified
T1 construct: collagen alpha-1(I) chain, rat, heat-denatured; collagen alpha-2(I) chain, rat, heat-denatured; Same chains as m3 but denatured (unfolded single chains) before coating or coupling; also called denatured collagen; source: bought: Sigma (rat-tail type I collagen), 1 mg/ml in 100 mM acetic acid heated to 67°C for 30 min

[2] = biological target: T2, type I collagen (native, triple-helical; rat tail) (rat, UniProt P02454 152-1207; P02466 86-1125); assay: as above; details: both partners purified
T2 construct: collagen alpha-1(I) chain, rat; collagen alpha-2(I) chain, rat; also called native collagen; rat-tail type I collagen; source: bought: Sigma (rat-tail type I collagen)
T2 sequence (P02454 152-1207, chain 1 of 2): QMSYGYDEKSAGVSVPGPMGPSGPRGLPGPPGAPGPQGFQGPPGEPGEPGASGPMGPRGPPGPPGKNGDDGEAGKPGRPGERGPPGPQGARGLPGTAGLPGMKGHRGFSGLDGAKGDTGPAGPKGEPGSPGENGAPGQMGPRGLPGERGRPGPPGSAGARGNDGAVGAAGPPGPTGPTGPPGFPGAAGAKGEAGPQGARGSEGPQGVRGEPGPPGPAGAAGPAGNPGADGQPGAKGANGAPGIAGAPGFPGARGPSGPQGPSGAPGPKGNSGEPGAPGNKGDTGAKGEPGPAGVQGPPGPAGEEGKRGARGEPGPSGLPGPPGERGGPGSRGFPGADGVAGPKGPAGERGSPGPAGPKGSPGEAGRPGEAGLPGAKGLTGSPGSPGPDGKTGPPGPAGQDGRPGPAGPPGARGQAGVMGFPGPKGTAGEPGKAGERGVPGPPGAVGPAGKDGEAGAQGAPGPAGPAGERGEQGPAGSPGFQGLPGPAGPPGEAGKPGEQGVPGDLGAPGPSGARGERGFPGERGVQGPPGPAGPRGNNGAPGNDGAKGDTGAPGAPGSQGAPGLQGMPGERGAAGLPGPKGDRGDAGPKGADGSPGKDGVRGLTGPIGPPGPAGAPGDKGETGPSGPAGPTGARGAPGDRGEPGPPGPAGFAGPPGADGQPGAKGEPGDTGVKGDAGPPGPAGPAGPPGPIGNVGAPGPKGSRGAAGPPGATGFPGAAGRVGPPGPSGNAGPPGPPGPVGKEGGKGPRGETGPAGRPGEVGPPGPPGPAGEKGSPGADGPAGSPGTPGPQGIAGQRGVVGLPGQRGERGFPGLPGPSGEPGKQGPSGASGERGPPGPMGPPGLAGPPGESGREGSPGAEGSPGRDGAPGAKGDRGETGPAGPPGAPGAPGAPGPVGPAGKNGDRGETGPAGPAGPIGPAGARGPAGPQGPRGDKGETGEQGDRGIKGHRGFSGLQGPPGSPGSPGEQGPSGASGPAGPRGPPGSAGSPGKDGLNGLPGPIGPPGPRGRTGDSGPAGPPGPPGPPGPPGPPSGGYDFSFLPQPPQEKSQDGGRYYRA
T2 sequence (P02466 86-1125, chain 2 of 2): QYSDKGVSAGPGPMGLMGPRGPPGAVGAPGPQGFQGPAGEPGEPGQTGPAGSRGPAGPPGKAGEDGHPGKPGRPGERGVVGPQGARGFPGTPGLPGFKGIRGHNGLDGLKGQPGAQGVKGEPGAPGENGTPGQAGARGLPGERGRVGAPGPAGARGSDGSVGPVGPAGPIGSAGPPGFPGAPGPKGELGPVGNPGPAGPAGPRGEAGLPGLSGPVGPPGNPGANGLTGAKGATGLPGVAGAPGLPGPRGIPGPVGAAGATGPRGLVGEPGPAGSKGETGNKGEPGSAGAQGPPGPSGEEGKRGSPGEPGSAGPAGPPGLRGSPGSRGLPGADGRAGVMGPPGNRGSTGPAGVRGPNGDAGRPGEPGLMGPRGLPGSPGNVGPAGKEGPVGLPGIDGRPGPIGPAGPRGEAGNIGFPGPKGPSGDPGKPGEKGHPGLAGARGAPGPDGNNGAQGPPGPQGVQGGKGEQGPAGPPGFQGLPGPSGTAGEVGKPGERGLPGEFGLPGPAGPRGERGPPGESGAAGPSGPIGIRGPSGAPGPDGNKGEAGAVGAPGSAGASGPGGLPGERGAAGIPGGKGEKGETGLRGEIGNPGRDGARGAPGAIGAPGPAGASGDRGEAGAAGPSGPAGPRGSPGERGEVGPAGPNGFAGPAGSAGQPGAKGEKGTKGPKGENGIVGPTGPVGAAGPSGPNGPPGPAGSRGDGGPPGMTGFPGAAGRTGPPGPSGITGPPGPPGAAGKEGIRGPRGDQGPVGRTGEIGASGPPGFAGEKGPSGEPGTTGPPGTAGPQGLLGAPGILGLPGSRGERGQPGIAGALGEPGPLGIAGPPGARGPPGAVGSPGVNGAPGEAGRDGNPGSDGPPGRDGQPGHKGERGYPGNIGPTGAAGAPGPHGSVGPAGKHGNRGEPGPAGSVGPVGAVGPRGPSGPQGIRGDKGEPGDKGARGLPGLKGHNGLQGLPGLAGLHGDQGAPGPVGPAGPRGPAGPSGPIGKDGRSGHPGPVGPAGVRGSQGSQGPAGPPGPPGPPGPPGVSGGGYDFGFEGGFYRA

T1 sequence (P02454 152-1207, chain 1 of 2): as the sequence (P02454 152-1207, chain 1 of 2) above
T1 sequence (P02466 86-1125, chain 2 of 2): as the sequence (P02466 86-1125, chain 2 of 2) above

B1: Endo180 D1-4-Fc (dimeric Fc-tagged Endo180 domains 1-4) (Fc fusion)
chain: APLADAALPEPNVFLIFSHGLQGCLEAQGGQVRVTPACNTSLPAQRWKWVSRNRLFNLGTMQCLGTGWPGTNTTASLGMYECDREALNLRWHCRTLGDQLSLLLGARTSNISKPGTLERGDQTRSGQWRIYGSEEDLCALPYHEVYTIQGNSHGKPCTIPFKYDNQWFHGCTSTGREDGHLWCATTQDYGKDERWGFCPIKSNDCETFWDKDQLTDSCYQFNFQSTLSWREAWASCEQQGADLLSITEIHEQTYINGLLTGYSSTLWIGLNDLDTSGGWQWSDNSPLKYLNWESDQPDNPSEENCGVIRTESSGGWQNRDCSIALPYVCKKKPNATAEPTPPDRWANVKVECEPSWQPFQGHCYRLQAEKRSWQESKKACLRGGGDLVSIHSMAELEFITKQIKQEVEELWIGLNDLKLQMNFEWSDGSLVSFTHWHPFEPNNFRDSLEDCVTIWGPEGRWNDSPCNQSLPSICKKAGQLSQG
modifications: natively glycosylated (predicted N-linked sites Asn69, Asn102, Asn140, Asn364, Asn497)
A Kd [1] of 420 ± 30 nM and a Kd [2] of 2500 ± 250 nM were found for B1 in this work.

B2: Endo180 D3-4-Fc (Fc fusion, human)
chain: APLAKSNDCETFWDKDQLTDSCYQFNFQSTLSWREAWASCEQQGADLLSITEIHEQTYINGLLTGYSSTLWIGLNDLDTSGGWQWSDNSPLKYLNWESDQPDNPSEENCGVIRTESSGGWQNRDCSIALPYVCKKKPNATAEPTPPDRWANVKVECEPSWQPFQGHCYRLQAEKRSWQESKKACLRGGGDLVSIHSMAELEFITKQIKQEVEELWIGLNDLKLQMNFEWSDGSLVSFTHWHPFEPNNFRDSLEDCVTIWGPEGRWNDSPCNQSLPSICKKAGQLSQG
notes: Endo180 (uPARAP), human, domains 3-4 (CTL1, CTL2), residues 231-513 of UniProt Q9UBG0; also called D3-4-Fc construct; source: HEK293 c18, transfected, secreted into serum-free medium, purified (protein A); not shown: Fc (IgG2), C-terminal, kept
A Kd [1] of 2200 ± 150 nM and a Kd [2] of 3700 ± 430 nM were found for B2 in this work.
